According to publication PMC9126943, “ADAMTS4-specific MR probe to assess aortic aneurysms in vivo using synthetic peptide libraries” (Nature Communications, 2022):
Entries after “also recorded” stand apart in the source; their conditions may differ. Where a SMILES comes first, the peptide text is derived from it. Bridges are numbered along the chain shown (N, C = ends). The star is where a group is joined. Cy5(nonsulfonated) = CN1C(=CC=CC=CC2=[N+](CCCCCC(=O)*)c3ccccc3C2(C)C)C(C)(C)c2ccccc21; DOTA = O=C(O)CN1CCN(CC(=O)O)CCN(CC(=O)*)CCN(CC(=O)O)CC1

Legend:
[1] = Biodistribution and blood clearance by ICP-MS of Gd
ADAMTS1 = biological target: T1, ADAMTS1 (Homo sapiens, UniProt Q9UHI8); assay: MST instrument, ligand-dependent fluorescence change, Cy5-labeled peptide vs ADAMTS1; type: binding; conditions: Cy5-labeled peptide 3 nM, ADAMTS1 starting concentration 4.88 µM, n = 3
T1 construct: His; purchased BioTeZ Berlin-Buch GmbH 30 400 402
T1 sequence (Q9UHI8 253-967): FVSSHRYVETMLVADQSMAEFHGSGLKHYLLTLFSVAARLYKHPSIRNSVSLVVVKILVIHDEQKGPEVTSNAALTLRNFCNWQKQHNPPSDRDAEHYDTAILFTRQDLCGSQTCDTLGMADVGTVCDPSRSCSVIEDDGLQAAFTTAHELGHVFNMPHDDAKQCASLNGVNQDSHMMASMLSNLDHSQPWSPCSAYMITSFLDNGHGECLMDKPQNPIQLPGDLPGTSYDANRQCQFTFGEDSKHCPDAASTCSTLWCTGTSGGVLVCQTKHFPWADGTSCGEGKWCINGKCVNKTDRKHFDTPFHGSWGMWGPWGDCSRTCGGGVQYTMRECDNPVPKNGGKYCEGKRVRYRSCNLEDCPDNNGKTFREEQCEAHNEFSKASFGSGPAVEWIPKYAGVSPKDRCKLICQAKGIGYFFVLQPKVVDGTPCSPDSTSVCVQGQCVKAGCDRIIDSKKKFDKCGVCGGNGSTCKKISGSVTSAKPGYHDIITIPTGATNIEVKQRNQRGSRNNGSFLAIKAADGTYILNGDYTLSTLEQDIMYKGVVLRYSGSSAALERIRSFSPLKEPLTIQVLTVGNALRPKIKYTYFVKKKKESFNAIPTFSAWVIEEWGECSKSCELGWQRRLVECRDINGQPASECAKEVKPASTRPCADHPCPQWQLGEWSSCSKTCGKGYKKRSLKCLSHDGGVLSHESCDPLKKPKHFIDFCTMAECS
Description: Microscale thermophoresis (MST) was performed on a Monolith Pico (NanoTemper, Munich, Germany). The Cy5-labeled peptides were diluted into the MST buffer (150 mM NaCl, 50 mM TRIS-HCl, 5 mM CaCl2, and Tween-20) to reach a dilution of 6 nM. ADAMTS4, ADAMTS5, and ADAMTS1 were directly used with the supplied concentration. For ADAMTS4, the starting concentration was 4.96 µM, while for ADAMTS1 it was 4.88 µM and for ADAMTS5 it was 2.46 µM. Since we saw a loss of binding after centrifugation, the use of protein concentrators were inappropriate. 20 µl of the protein solutions were transferred into a PCR tube. 10 µl of this first vial was transferred into a second vial and mixed by pipetting with 10 µl of the MST buffer. […] The capillaries were transferred into the Monolith tray and measured with 10% excitation power on the pico-red excitation on high MST power at 25 °C. […] We detected a ligand-dependent fluorescence change for some of the systems. We checked for ADAMTS4 and the ADAMTS4-specific-Cy5-labeled probe via a saturation test for specifying the ligand-dependent fluorescence change. […] The samples were heated at 95 °C for 5 min and measured in the MST. The fluorescence difference between the concentrations was afterward at the same level. Each measurement was repeated three times independently and the binding constant was calculated by merging all three measurements. […]

[2] = male ApoE−/− mice, i.v., n = 3 per time point

SMILES: N=C(N)NCCC[C@@H]1NC(=O)[C@H](CCCNC(=N)N)NC(=O)[C@H](CO)NC(=O)[C@@H](N)CSSC[C@@H](C(=O)N[C@@H](CO)C(=O)NCC(=O)NCC(=O)N[C@@H](CO)C(=O)NCC(=O)NCC(=O)N[C@@H](CCCCNC(=O)CN2CCN(CC(=O)O)CCN(CC(=O)O)CCN(CC(=O)O)CC2)C(=O)NCC(N)=O)NC(=O)CNC1=O (Gd complex, metal not drawn) [ADAMTS4-specific probe] (H-CSRRGCSGGSGGK(DOTA)G-NH2; disulfide 1-6)
- time of highest aortic uptake after intravenous injection ([1]; ApoE−/− mice): 15 min
- blood clearance ([1]; ApoE−/− mice, i.v., over 120 min): rapid blood clearance
- Gd levels in kidneys and urine [1, 2]: Higher levels of Gd
- gadolinium uptake in liver, lung, spleen, heart and muscle [1, 2]: low gadolinium uptake

SMILES: C[N+]1=C(C=CC=CC=C2N(CCCCCC(=O)NCCCC[C@H](NC(=O)CNC(=O)CNC(=O)[C@H](CO)NC(=O)CNC(=O)CNC(=O)[C@H](CO)NC(=O)[C@@H]3CSSC[C@H](N)C(=O)N[C@@H](CO)C(=O)N[C@@H](CCCNC(=N)N)C(=O)N[C@@H](CCCNC(=N)N)C(=O)NCC(=O)N3)C(=O)NCC(N)=O)c3ccccc3C2(C)C)C(C)(C)c2ccccc21 [Cy5-labeled probe] (H-CSRRGCSGGSGGK(Cy5(nonsulfonated))G-NH2; disulfide 1-6; N-terminus and C-terminus assumed)
- binding to ADAMTS1, in words (ADAMTS1): determination of the binding constant is not possible; also recorded: plateau was not reached; also recorded: a ligand dependent fluorescence change occurs
